Molecular target: HTLV-1 CA C-terminal domain, HTLV-1 CACTD (A128-L214) (Human T-cell Leukaemia Virus type 1, subtype C, isolate Aus-GM)
Experiment: SEC; HTLV-1 CACTD on HiLoad 26/600 Superdex 75 pg, 20 mM HEPES (pH 7.0), 40 mM NaCl; purified as a dimer (Supplementary Fig. 3d)

HTLV-1 CA C-terminal domain, HTLV-1 CACTD (A128-L214) (domain or fragment)
stoichiometry N: 2
